Reference: patent publication US20220332804A1 (CSL INNOVATION, published 2022)
Substitutions are numbered along the chain they refer to.

Key:
Assay in all cases: SPR; KD relative to WT C2;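 further: biacore SPR at 37 °C, anti-C2 mAbs captured on an anti-human IgG chip, alanine or serine C2 surface mutants tested, KD from 1:1 fit compared with wild-type C2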
[1] = molecular target: T1, human C2 K415A (human, UniProt P06681 21-752)
T1 sequence: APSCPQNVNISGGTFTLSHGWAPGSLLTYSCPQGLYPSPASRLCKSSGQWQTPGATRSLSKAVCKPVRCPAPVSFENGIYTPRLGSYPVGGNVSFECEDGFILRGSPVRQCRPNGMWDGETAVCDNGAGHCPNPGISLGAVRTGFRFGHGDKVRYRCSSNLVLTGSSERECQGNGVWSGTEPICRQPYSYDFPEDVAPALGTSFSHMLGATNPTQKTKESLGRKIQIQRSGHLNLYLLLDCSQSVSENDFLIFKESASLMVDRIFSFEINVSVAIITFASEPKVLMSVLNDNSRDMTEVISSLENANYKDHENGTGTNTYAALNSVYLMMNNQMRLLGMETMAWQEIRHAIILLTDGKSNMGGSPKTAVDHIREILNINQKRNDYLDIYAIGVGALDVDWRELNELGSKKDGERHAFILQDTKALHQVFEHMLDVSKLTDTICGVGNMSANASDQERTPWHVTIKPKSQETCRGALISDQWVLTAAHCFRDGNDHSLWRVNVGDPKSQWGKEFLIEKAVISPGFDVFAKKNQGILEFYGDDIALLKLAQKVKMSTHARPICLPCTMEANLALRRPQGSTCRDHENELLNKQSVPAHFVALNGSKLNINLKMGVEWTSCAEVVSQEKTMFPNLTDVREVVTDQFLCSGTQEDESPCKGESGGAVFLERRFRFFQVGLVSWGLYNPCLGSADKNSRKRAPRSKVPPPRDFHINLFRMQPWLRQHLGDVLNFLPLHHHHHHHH

[2] = molecular target: T2, human C2 M452A (human, UniProt P06681 21-752)
T2 sequence: T1 sequence with A395K, M432A

[3] = molecular target: T3, human C2 E476A (human, UniProt P06681 21-752)
T3 sequence: T1 sequence with A395K, E456A

[4] = molecular target: T4, human C2 D269A (human, UniProt P06681 21-752)
T4 sequence: T1 sequence with D249A, A395K

B1: RF16-214 (antibody, V domains shown)
VH: EVQLLESGGGLVQPGGSLRLSCAASGFTFSWYQMMWVRQAPGKGLEWVSRIYPSGGGTAYADSVKGRFTISRDNSKNTLYLQMNSLRAEDTAVYYCARDAGYGDNWGQGTLVTVSS
VL: QSALTQPPSVSVSPGQTASITCSGDKLGEKYASWYQQKAGQSPVMVIYQDRKRPSGIPERFSGSNSGNTATLTISGTQAMDEADYYCQAWDTRAVVFGGGTKLTVLG
B1 showed a Fold diff [1] of 1 fold, a Fold diff [2] of 1 fold and a Fold diff [3] of 2 fold. For the same binder, the Fold diff [4] was 1 fold.
